Substitutions are numbered along the chain they refer to.
B1: Hu001-7 Fab (clone 7, expressed in clone supernatant) (Fab, V domains shown)
VH: QVQLVQSGAEVKKPGSSVKVSCKASGGTFSSYAISWVRQAPGQGLEWMGGIIPIFGTANYAQKFQGRVTITADESTSTAYMELSSLRSEDTAVYYCAKDIVSRVRGELVGGYYYFGLDVWGQGTTVTVSA
VL: NIQLTQSPSSLSASVGDRVTITCRASQTISSYLNWYQQKPGKAPKLLIYAASRLQSGVPSRFSGSGSGTDFTLTISSLQPEDFATYYCQQSYSTPRTFGQGTKVEIK
notes: Fab from the phage library clone, tested as bacterial culture supernatant
B2: Hu001-5 Fab (clone 5, expressed in clone supernatant) (Fab, V domains shown)
VH: QVQLLESGGGVVQPGRSLRLSCAASGFTFSSYGMHWVRQAPGKGLEWVAVISYDGSNKYYADSVKGRFTISRDNSKNTLYLQMNSLRAEDTAVYYCAKDQVLAPVGGGLFDYWGQGTLVTVSA
VL: B1 VL with N1D, T28S, S31T, K45E, L46S, Y49F, R53S, Q55A, Q100P
notes: as for B1
B3: Hu001-5 antibody (full-length human IgG1, kappa) (antibody, V domains shown)
VH: B2 VH
VL: B1 VL with N1D, T28S, S31T, K45E, L46S, Y49F, R53S, Q55A, Q100P
notes: built as human IgG1 with kappa light chain in vectors AbVec-hIgG1 WT and AbVec-hIgKappa, expressed in Expi293 cells; also called anti-AXL antibody Hu001-5
B4: Hu001-11 Fab (clone 11, expressed in clone supernatant) (Fab, V domains shown)
VH: QVQLLESGGGVVQPGRSLRLSCAASGFTFSSYGMHWVRQAPGKGLEWVAVISYDGSNKYYADSVKGRFTISRDNSKNTLYLQMNSLRAEDTAVYYCAKYGSSGPYWYFDLWGQGTLVTVSA
VL: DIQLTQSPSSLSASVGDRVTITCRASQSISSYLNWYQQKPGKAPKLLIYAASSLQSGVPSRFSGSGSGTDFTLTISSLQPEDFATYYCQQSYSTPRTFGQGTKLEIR
notes: as for B1
B5: Hu001-11 antibody (full-length human IgG1, kappa) (antibody, V domains shown)
VH: B4 VH
VL: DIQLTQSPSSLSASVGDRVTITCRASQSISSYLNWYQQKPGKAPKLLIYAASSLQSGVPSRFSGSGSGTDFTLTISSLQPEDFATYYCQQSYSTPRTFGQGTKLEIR
notes: built as human IgG1 with kappa light chain in vectors AbVec-hIgG1 WT and AbVec-hIgKappa, expressed in Expi293 cells; also called anti-AXL antibody Hu001-11
B6: Hu001-14 Fab (clone 14, expressed in clone supernatant) (Fab, V domains shown)
VH: EVQLVQSGAEVKKPGASVKVSCKASGYTFTSYYMHWVRQAPGQGLEWMGIINPSGGSTSYAQKFQGRVTMTRDTSTSTVYMELSSLRSEDSAVYYCARDWYFDVWGAGTTVTVSA
VL: NIQMTQSPSSVSASVGDRVTITCRASQGISSWLAWYQQKPGKAPKLLIYAASSLQSGVPSRFSGSGSGTDFTLTISSLQPEDFATYYCQQANSFPFTFGGGTKVEIK
notes: as for B1

What was measured:
[1] = molecular target: T1, human recombinant AXL protein, extracellular domain (hAXL-ECD) (human, UniProt P30530 26-451); test: ELISA, Fab supernatant on coated hAXL-ECD, OD450; unit inferred, unit taken from the concentration axis
T1 construct: extracellular domain; Bought protein; also called antigen hAXL-ECD; hAXL-ECD protein
T1 sequence (looked up): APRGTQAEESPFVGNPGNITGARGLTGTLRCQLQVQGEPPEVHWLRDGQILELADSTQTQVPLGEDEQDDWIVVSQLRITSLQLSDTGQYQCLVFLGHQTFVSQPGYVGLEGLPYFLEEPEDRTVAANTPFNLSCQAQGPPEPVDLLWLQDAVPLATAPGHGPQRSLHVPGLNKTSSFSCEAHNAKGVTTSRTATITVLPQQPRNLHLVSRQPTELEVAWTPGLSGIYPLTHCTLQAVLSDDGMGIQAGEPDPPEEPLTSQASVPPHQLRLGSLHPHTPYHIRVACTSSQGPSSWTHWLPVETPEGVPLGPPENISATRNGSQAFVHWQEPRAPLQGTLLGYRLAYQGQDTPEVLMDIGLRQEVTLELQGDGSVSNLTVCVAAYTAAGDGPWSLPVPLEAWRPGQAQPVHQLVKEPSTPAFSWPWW
Experimental: Clones from the third round of selection were first picked up in a 96-well deep-well plate containing 300 μL of 2-YT medium and incubated overnight at 37° C. The supernatant, which contained the expressed Fab, was taken, diluted in a gradient, and added to an ELISA plate coated with 2 μg/mL of hAXL-ECD. HRP-labeled goat anti-human Fab was used as the secondary antibody (goat anti-human-HRP, ThermnoFisher, 31482, 1:6000 dilution) for detection. A higher signal value indicated a stronger affinity.

[2] = molecular target: T2, AXL on CHO-AXL cells (human, UniProt P30530 26-894); test: flow cytometry on CHO-AXL cells, pH 6.0 against pH 7.4
T2 construct: whole, on cells; The construct in the CHO-AXL cells is not described
T2 sequence (looked up): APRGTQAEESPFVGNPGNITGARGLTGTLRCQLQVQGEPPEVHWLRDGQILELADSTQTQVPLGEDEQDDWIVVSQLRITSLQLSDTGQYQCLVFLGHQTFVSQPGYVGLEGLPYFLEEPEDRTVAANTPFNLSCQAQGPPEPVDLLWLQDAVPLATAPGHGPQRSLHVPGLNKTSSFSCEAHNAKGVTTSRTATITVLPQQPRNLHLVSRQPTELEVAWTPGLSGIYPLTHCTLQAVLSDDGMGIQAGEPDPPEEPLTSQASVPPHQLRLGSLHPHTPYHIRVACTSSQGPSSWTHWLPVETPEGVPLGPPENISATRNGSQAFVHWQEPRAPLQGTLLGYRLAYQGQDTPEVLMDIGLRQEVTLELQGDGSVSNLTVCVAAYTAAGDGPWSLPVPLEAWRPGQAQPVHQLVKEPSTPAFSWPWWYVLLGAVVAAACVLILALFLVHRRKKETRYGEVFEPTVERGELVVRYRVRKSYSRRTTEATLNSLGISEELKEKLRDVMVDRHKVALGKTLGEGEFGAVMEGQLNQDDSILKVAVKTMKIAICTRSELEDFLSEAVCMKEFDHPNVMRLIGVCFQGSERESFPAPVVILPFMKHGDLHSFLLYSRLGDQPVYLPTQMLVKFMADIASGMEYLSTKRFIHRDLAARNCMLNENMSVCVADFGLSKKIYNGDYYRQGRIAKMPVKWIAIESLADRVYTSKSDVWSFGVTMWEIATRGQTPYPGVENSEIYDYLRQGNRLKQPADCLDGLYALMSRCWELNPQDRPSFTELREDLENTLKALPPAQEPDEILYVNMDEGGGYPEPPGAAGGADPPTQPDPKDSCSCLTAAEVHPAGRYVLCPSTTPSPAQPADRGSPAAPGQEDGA
Experimental: (§1) The affinity of the candidate antibody for specific binding to hAXL-ECD was detected by flow cytometry. A total of 4 clones of Hu001-5, Hu001-7, Hu001-11, and Hu001-14 were tested under acidic (pH=6.0) and neutral (pH=7.4) conditions, respectively.
(§2) CHO-AXL cells (constructed by Shanghai Sinobay Biotechnology Co. Ltd.) were cultured in a cell culture flask in DMEM/F-12 medium (10% FBS, 1% penicillin/streptomycin). After 48 hours of culture at 37° C. in an incubator containing 5% CO₂, the supernatant was discarded. The cells were collected by digestion with 0.25% trypsin and centrifuged at 800 g for 3 minutes. The supernatant was discarded and the cells were resuspended (10⁶/mL) in 2% FBS Wash Buffer. The pH of the buffer was adjusted and the cells were divided into pH6.0 and pH7.4 groups, and primary antibodies (Hu001-5 antibody, Hu001-7 antibody, Hu001-11 antibody, Hu001-14 antibody, and positive control antibody CCT301-38) were added to each group and incubated for 15 minutes at room temperature. The supernatant was discarded. Fluorescent-labeled secondary antibody IgG-Fc-PE (BioLegend, cat. No. 409304) was added and incubation was continued at room temperature for 15 min in the dark. Then, the detection was performed on the machine. A higher signal value can indicate a stronger affinity. […]

[3] = molecular target: T2, AXL on CHO-AXL cells; test: flow cytometry on CHO-AXL cells, pH 6.0 and pH 7.4, IgG-Fc-PE secondary antibody
Experimental: as §1, §2

Row | Binder | EC50 [1] [µg/mL] | fold of mean fluorescence intensity under the acidic condition against the neutral condition [2] [fold] | fold of mean fluorescence intensity against the positive control CCT301-38 [3] [fold]
1 | B1 | 0.214 | – | –
2 | B2 | 0.292 | – | –
3 | B3 | – | ~1.5 | ~4
4 | B4 | 0.14 | – | –
5 | B5 | – | ~1.5 | ~4
6 | B6 | 0.274 | – | –

— patent publication US20250019446A1 (SHANGHAI SINOBAY BIOTECHNOLOGY, published 2025)
